Laboratory results reported in patent US20220226430A1 (TEXAS A AND M UNIVERSITY SYSTEM, published 2022).

Target: Clostridium difficile toxin B (TcdB) from C. difficile strain VPI 10463 (ribotype 087) (Clostridium difficile strain VPI 10463, UniProt P18177 2-2366)
Experiment: cell-based or functional assay

Sequence of Clostridium difficile toxin B (TcdB) from C. difficile strain VPI 10463 (ribotype 087) (P18177 2-2366): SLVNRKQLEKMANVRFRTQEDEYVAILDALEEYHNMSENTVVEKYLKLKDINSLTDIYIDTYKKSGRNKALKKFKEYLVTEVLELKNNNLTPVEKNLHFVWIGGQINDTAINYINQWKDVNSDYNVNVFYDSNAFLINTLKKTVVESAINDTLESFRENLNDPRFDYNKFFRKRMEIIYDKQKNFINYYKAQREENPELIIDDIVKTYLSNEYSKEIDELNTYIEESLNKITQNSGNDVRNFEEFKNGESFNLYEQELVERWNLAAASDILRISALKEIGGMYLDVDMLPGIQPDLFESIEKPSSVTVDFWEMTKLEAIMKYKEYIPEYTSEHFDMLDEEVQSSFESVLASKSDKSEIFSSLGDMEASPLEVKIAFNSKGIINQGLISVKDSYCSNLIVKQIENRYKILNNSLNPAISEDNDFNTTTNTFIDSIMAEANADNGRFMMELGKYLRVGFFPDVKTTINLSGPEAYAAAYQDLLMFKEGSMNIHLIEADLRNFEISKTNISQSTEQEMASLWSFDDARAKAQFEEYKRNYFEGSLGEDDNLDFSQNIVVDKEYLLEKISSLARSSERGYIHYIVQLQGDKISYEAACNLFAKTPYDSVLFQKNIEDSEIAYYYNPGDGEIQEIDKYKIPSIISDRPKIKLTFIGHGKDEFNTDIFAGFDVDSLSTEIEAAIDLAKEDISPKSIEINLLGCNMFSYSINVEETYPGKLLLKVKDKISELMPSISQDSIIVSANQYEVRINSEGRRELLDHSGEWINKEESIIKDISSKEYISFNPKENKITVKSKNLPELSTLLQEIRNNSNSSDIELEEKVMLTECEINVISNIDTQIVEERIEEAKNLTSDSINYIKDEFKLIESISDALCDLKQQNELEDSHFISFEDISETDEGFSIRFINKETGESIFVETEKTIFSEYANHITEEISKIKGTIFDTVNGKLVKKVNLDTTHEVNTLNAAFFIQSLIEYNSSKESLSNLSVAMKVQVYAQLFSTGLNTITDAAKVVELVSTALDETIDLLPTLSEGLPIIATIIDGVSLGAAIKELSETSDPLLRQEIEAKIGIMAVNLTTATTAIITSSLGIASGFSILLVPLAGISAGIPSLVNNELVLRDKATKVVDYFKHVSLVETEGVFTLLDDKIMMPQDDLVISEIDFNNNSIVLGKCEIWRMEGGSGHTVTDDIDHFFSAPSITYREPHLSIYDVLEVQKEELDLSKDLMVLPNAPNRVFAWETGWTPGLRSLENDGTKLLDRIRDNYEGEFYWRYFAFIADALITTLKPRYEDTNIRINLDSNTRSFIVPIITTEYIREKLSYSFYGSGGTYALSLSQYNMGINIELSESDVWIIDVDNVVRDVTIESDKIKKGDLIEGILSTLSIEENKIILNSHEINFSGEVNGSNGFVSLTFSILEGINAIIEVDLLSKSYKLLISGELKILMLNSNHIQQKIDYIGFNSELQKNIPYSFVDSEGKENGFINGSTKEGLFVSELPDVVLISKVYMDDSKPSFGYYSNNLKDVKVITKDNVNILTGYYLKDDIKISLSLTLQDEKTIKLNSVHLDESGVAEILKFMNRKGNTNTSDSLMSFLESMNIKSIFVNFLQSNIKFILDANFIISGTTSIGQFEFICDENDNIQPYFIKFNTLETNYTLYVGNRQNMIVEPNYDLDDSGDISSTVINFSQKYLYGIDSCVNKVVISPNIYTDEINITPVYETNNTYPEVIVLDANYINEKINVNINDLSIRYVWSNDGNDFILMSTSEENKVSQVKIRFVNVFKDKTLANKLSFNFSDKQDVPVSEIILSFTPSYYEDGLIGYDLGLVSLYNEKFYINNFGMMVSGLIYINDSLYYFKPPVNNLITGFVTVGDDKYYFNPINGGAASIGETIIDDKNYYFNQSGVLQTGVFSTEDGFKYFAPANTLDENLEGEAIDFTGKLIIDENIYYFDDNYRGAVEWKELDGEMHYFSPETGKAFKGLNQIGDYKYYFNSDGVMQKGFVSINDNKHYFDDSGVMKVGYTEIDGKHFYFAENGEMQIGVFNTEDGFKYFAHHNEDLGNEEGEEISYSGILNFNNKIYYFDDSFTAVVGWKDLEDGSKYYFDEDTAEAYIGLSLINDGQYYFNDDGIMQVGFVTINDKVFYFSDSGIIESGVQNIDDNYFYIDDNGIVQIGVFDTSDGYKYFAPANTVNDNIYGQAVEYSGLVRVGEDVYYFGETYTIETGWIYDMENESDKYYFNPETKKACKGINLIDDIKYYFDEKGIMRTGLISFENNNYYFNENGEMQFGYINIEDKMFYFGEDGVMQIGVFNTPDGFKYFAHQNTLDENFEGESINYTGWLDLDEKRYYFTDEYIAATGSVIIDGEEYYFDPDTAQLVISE

Binder | EC50 of TcdB neutralization (Vero cells, CellTiterGlo) | other results
DARPin 1.2E (designed binder, not shown: small tags and cut ends) GSDLGKKLLEAARAGQDDEVRILMANGADVNAYDARGVTPLHLAAFSGHLEIVEVLLKNGADVNAIDVIGMTPLHLAAWIGHLEIVEVLLKHGADVNAVDRSGNTPLHLAAWLGHLEIVEVLLKYGADVNAQDKFGKTAFDISIDNGNEDLAEILQSSS | 2.4 nM | –
DARPin 1.4E (designed binder, not shown: small tags and cut ends) GSDLGKKLLEAARAGQDDEVRILMANGADVNATDHLGVTPLHLAAVLGHLEIVEVLLKHGADVNAYDILGRTPLHLAAWRGHLEIVEVLLKYGADVNADDTSGTTPLHLAAGEGHLEIVEVLLKYGADVNAQDKFGKTAFDISIDNGNEDLAEILQSSS | 3 nM | –
DARPin U3 (designed binder, not shown: small tags and cut ends) GSDLGKKLLEAARAGQDDEVRILMANGADVNADDRIGMTPLHLAAIGGHLEIVEVLLKNGADVNADDVHGRTPLHLAAGRGHLEIVEVLHGADVNAPDRWGRTPLHLAAHHGHLEIVEVLLKYGADVNAQDKFGKTAFDISIDSGNEDLAEILQSSS | – | toxin-neutralization EC50 (Vero cells): > 25 nM
DARPin 3.5B (designed binder, not shown: small tags and cut ends) GSDLGKKLLEAARAGQDDEVRILMANGADVNAKDTFGETPLHLAAWKGHLEIVEVLLKYGADVNASDLLGRTPLHLAAWRGHLEIVEVLLKNGADVNASDTGGYTPLHLAAALGHLEIVEVLLKHGADVNAQDKFGKTAFDISIDNGNEDLAEILQSSS | – | toxin-neutralization EC50: 13.3 nM
